Experiment in all cases: purified protein, by the assay type
Substrate in data set [1]: NC(=O)C1=CN([C@@H]2O[C@H](COP(=O)(O)OP(=O)(O)OC[C@H]3O[C@@H](n4cnc5c(N)ncnc54)[C@H](O)[C@@H]3O)[C@@H](O)[C@H]2O)C=CC1
Particulars: pH 8.0; 25.0 °C.

Substrate in data set [2]: NC(=O)C1=CN([C@@H]2O[C@H](COP(=O)(O)OP(=O)(O)OC[C@H]3O[C@@H](n4cnc5c(N)ncnc54)[C@H](OP(=O)(O)O)[C@@H]3O)[C@@H](O)[C@H]2O)C=CC1
Substrate in data set [3]: O=C(O)c1ccc(O)cc1

Where “and” joins values, the source holds several entries; their conditions need not be identical. Equal values may be shown once.

B1: Paenibacillus sp. JJ-1b PraI (para-hydroxybenzoate-3-hydroxylase, PHBH), BAH79107, tagless, praI_EC gene SEQ ID NO: 3 (Paenibacillus sp.) (protein)
chain: RTQVGIIGAGPAGLLLSHLLYLQGIESIIIENRTREEIEGTIRAGVLEQGTVDLMNQMGVGARMMKEGHFHEGFELRFNGRGHRINVHELTGGKYVTVYAQHEVIKDLVAARLQTGGQIHFNVGDVSLHDVDTSSPKIRFRPNKDGELQEIECDFIAGCDGFRGPSRPAIPQSVRKEYQKVYPFSWLGILVEAPPSAHELIYANHERGFALVSTRSPQIQRLYLQVDAQDHIDNWSDDRIWSELHARLETRDGFKLLEGPIFQKGIVSMRSFVCDPMQHGRLFLAGDAAHIVPPTGAKGLNLAAADVQVLARGLEAYYKAGKMEILNRCTEICLRRIWKAERFSWFMTTMLHRDQGHTPFERGIQLAELDYVTSSRAASTSLAENYIGLPMEF
Take B1: the Km in data set [1] is 49 ± 3 µM and 46 ± 4 µM; in data set [2] (pH 8.0, 25.0 °C), 27 ± 1 µM and 33 ± 2 µM; in data set [3] (pH 8.0, 25.0 °C), 16 ± 1 µM and 19 ± 2 µM and 18 ± 1 µM.

B2: Pseudomonas putida KT2440 PobA (para-hydroxybenzoate-3-hydroxylase, PHBH), native, PP_3537, tagless, pobA_EC gene SEQ ID NO: 1 (Pseudomonas putida KT2440) (protein)
chain: MKTQVAIIGAGPSGLLLGQLLHKAGIDNIIVERQTAEYVLGRIRAGVLEQGTVDLLREAGVAERMDREGLVHEGVELLVGGRRQRLDLKALTGGKTVMVYGQTEVTRDLMQAREASGAPIIYSAANVQPHELKGEKPYLTFEKDGRVQRIDCDYIAGCDGFHGISRQSIPEGVLKQYERVYPFGWLGLLSDTPPVNHELIYAHHERGFALCSQRSQTRSRYYLQVPLQDRVEEWSDERFWDELKARLPAEVAADLVTGPALEKSIAPLRSLVVEPMQYGHLFLVGDAAHIVPPTGAKGLNLAASDVNYLYRILVKVYHEGRVDLLAQYSPLALRRVWKGERFSWFMTQLLHDFGSHKDAWDQKMQEADREYFLTSPAGLVNIAENYVGLPFEEVA
As to B2, the Michaelis constant (Km) in data set [2] (other: NADPH varied, NADPH detection (340 nm), air-saturated, 200 μM 4-hydroxybenzoate, pH 8, 25° C.) is 43 ± 3 µM; in data set [2] (other: NADPH varied, O2 detection (oxygraph), air-saturated, 200 μM 4-hydroxybenzoate, pH 8, 25° C.), 66 ± 6 µM; in data set [3] (other: NADPH as reducing equivalent, NADPH detection (340 nm), air-saturated, 300 μM NAD(P)H, pH 8, 25° C.) it was 18 ± 2 µM; in data set [3] (other: NADPH as reducing equivalent, O2 detection (oxygraph), air-saturated, 300 μM NAD(P)H, pH 8, 25° C.), 21 ± 1 µM.

Source of the values: US12606852B2, “Conversion of lignin-derived monomers to muconate by engineered pseudomonas” (Alliance for Sustainable Energy, LLC, priority 2021, dated 2026).
